For test [1], the target named is T1, GST-AFF1 (AUXIN RESPONSE FACTOR F-BOX1, At3g49150) (Arabidopsis thaliana (Mouse-ear cress), UniProt Q9M3B7).
T1 chain: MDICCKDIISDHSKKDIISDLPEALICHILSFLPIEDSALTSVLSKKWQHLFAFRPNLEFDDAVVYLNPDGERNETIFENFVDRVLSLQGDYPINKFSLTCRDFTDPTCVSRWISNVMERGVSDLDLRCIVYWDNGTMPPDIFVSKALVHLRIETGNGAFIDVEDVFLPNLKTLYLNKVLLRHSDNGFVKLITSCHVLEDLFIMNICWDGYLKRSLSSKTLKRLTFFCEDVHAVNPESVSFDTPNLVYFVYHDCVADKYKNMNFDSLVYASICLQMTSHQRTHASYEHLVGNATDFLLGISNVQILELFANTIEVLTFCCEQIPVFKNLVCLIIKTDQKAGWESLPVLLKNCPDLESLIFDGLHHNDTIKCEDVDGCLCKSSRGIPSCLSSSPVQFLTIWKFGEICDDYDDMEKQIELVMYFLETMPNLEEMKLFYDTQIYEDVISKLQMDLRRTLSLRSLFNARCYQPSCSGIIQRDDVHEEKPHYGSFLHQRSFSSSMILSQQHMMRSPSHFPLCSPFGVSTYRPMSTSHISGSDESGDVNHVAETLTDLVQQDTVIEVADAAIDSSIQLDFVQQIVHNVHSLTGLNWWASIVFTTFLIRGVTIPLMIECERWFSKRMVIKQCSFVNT
The test can be described thus: GST pull-down with immunoblot.

Test [2] addresses T2, GST-AFF1 (AUXIN RESPONSE FACTOR F-BOX1, At3g49150) (Arabidopsis thaliana, UniProt Q9M3B7 1-630).
T2 construct: AUXIN RESPONSE FACTOR F-BOX1 (AFF1), F-box protein encoded by At3g49150, Arabidopsis thaliana; also called GST-AFF1 recombinant protein; not shown: GST, N-terminal, kept
T2 sequence (looked up): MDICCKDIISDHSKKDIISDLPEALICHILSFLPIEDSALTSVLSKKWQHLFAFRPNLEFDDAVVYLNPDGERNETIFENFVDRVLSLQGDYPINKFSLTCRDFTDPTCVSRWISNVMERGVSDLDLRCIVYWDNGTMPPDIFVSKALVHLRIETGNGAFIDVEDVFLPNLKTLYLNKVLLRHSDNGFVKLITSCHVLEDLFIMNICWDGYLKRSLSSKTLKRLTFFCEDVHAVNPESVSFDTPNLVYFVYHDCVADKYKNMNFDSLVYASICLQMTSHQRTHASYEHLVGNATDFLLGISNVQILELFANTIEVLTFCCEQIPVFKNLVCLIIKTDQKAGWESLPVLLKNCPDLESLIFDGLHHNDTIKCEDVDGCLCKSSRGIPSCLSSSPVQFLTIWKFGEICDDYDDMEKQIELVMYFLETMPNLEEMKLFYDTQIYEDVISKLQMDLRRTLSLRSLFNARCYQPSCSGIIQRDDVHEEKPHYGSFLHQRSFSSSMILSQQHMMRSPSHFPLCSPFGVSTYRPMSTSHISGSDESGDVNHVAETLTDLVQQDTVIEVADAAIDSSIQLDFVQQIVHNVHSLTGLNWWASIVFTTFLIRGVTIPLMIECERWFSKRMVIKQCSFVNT
The test can be described thus: pull-down; 2 μg GST fusion immobilised on glutathione agarose, mixed with 2 μg His-ASK1, 4 °C, 2 hr; six washes; immunoblot with anti-His and anti-GST. As to conditions: both partners purified.

B1: His-ASK1 (ARABIDOPSIS SKP1-LIKE 1) (natural protein, UniProt Q39255 1-160, looked up)
chain: MSAKKIVLKSSDGESFEVEEAVALESQTIAHMVEDDCVDNGVPLPNVTSKILAKVIEYCKRHVEAAASKAEAVEGAATSDDDLKAWDADFMKIDQATLFELILAANYLNIKNLLDLTCQTVADMIKGKTPEEIRTTFNIKNDFTPEEEEEVRRENQWAFE
notes: ARABIDOPSIS SKP1-LIKE (ASK1), Arabidopsis thaliana; not shown: His, N-terminal, kept
Turning to B1, the binding result in test [1] and in test [2] was “binds” throughout.
